# Assay: yeast display, Sf9 membrane polyspecificity reagent, FACS + sequencing; frameworks hold sequencing errors
# How it was run: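 After 36–48 hours of galactose induction, yeast (Saccharomyces cerevisiae BJ5465) displaying a synthetic nanobody library were stained at 4 °C for 1 hour with 10% biotinylated, detergent-solubilized Sf9 membrane reagent. Streptavidin microbeads enriched the stained cells before FACS sorting into low and high (top ~1%) gates on anti-HA and streptavidin fluorescence. Each clone's polyreactivity label reflects its gate of origin.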
row,Sequence,polyreactivity (PSR sort gate)
1,QVQLVESGGGLVQAGGSLRLSCAASGSIFPSYAMGWYRQAPGQERELVATIGRGGTTNYADSVKGRFTISRDNAKNTVYLQMNSLKPEDTAVYYCNAERIWRYKYGYDYWGQGTQVNVSS,high polyreactivity
2,QVQLVESGGGLVQAGGSLRLSCAASGFIFGRYTMGWYRQAPWKERELVAAISGSGGRTYYADSVKGRFTISRDNAKNTVYLQMNSLKPEDTSVYYCATYGYFYYDYWGQGTQVTVSS,high polyreactivity
3,QVQLVESGGGLVQAGGSLRLSCAASGFIFDTYAMGWYRQAPGKERELVATINDRGDSTSYADSVKGRFTISRDNAKNTVYLQMNSLKPEDTAVYYCARTWGLRYRWSYGRSRYNYWGQGTQVTVSS,low polyreactivity
4,QVQLVESGGGLVQAGGSLRLSCAASGSTFRWNAMGWYRQAPGKERELVAAISGNGGSTYYADSVKGRFTISRDNAKNTVYLHMNTLKPEYNAVYYCAARGYFCSSYKYDYRGQGTQVTVSS,high polyreactivity
5,QVQLVESGGGLVQAGGSLRLSCAASGRIFYFNAMGWYRQAPGKERELVATITYIGGSTHYADSVKGRFTISRDNAKNTVYLQMNSLKPEDTAVYYCAVRDGKDTDTYWYGSWGQGTQVTVSS,low polyreactivity
6,QVQLVESGGGLVQAGGSLRLSCAASGSIFYRNAMGWYRQAPGKERELVASITSGGRTNYADSVKGRFTISRDNAKNTVYLQMNSLKPEDTAVYYCARGRASYTKSGPTPYTGYGYWGQGTQVTVSS,low polyreactivity
7,QVQLEESGGGLVQAGGSLRLSCAASGSTFYRYTMGWYRQAPGTERELVAAISRSGGRTYYADSVKGRFTISRDNAKNTVYLQMNSLKPEDTAVYYCAAARRYGRYFGYPMEYWGQGTQVTVSS,high polyreactivity
8,QVQLVESGGGLVQAGGSLRLSCAASGRIFYHYAMGWYRQAPGKERELVATIRRRGSSTYYADSVKGRFTISRDNAKNTVYLQMNSLKPEDTAVYYCAAGPTTNRYNYWGQGTQVTVSS,high polyreactivity
9,QVQLVESGGGLVQAGGSLRLSCAASGRIFGVNAMGWYRQAPGKERELVAHIRSSGASTYYADSVKGRFTISRDNAKNTVYLQMNSLKPEDTAVYYCARDYFVDGPGYDYWGQGTQVTVSS,low polyreactivity
10,QVQLVESGGGLVQAGGSLRLSCAASGSTLFWNAMGWYRKAPGKERELVAVISFSGVSTYYADSVKGRFTISRDNAKNTVYLQLNSLKPEDTAVYYCAAGRCLYYYYGYVDKYGYWGQGTQVTVSS,low polyreactivity
11,QVQLVESGGGLVQAGGSLRLSCAASGRIFRWNAMGWYRQAPGKERELVAVISSGGSTNYADSVKGRFTISRDNAKNTVYLQMNSLKPEDTAVYYCAADEGYVWPYYGWGFGKYDYWGQGTQVTVSS,low polyreactivity
12,QVQLVESGGGLVQAGGSLRLSCAASGFTVFYNAMGWYRQAPGKERELVAAITARGGGTYYADSVKGRFTISRDNAKNTVYLQMNSLKPEDTAVYYCAADSFIPPYDHWGQGTQVTVSS,low polyreactivity
13,QVQLVESGGGLVQAGGSLRLSCAASGSIFVKYAMGWYRQAPGTERELVAAISGSGGSTYYADSVKGRFTISRDNAKNTVYLQMNSLKPEDTAVYYCAADDYFYSGRYGFEYWGQGTQVTVSS,low polyreactivity
14,QVQLVESGGGLVQAGGSLRLSCAASGSIFYYAMGWYRQAPGKERELVADISTGGSTHYADSVKGRFTISRDNAKNTVYLQMYSLKPEDTAVYYCAKEAWRYRLNFRYNYWVQGTQVTVSS,low polyreactivity
15,QVQLVESGGGLVQAGGSLRLSCTASGIIFGTYAMGWYRQAPGKERELVAAISSSGVSTYYADSVKGRFTISRDNAKNTVYLQMNSLKPEDTAVYYCAAPLHYGYYYWGQGTQVTVSS,high polyreactivity
16,QVQLVESGGGLVQAGGSLRLSCAASGRTFTRYAMGWYRQSPGKERELVAAISTSGDSTYYADSVKGRFTISRDNAKNTVYLQMNSLKPVDTAVYYCNTYWTSEYDYWGQGTQVTVSW,low polyreactivity
17,QVQLVESGGGLVQAGGSLRLSCAASGITFAYYVMGWYRPAPGKERELVAVISSRGSRTFYADSVKGRFTISRDNAKNTVYLQMNSLKPEDTAVYYCAADSTYSYYWGQGTQVTVSS,high polyreactivity
18,QVQLVESGGGLVHAGGSLRLSSAASGGIFKYNPMGWYRQAPGTERELVARISFGGSRTYYADSVKGRFTISRDNAKNTCYVQMNSLKPADTAVYYCARRVTGTLYYTGYDYWGQGTQVTVSS,high polyreactivity
19,QVQLVESGGGLVQAGGSLRLSCAASGSTLGGNAMGWYRQAPGKERELVAAITSSAGSTYYADSVKGRFTISRDNAKNTVYLQMNSLKPEDTAVYYCATSRDYIGYDYWGQGTQVTVSS,low polyreactivity
20,QVQLVESGGGLVQAGASLRLSCAASGFIFRHYAMGWYRQAPGKARELVAVINWSGSSTYYADSVKGRFTISRDNAKNTVYLQMNSLKPEDTAVYYCAVRSLRVDKYGYWGQGTQVTVSS,high polyreactivity
21,QVQLVESGGGLVQAGGSLRLSCAASGITFDNYAMGWYRQAPGKEWELVAAISSDDNTTYADSVKGRFTISRDNAKNTVYLQMNSLKPEDTAVYYCAADSRIYGYWEYDYWGQGTQVTVST,low polyreactivity

row,Sequence,polyreactivity (PSR sort gate)
1,QVQLVESGGGLVQAGCSLRLSCAASGYIFYPYAMGWYRQAPGKERELVAAISGSGSGTYYADSVKGRFTISRDNAKNTVYLQMNSLKPEDTADYYCAKYVYDNVWMDYWGQGTQVTVSS,high polyreactivity
2,QVQLVESGGGLVQAGGSLRLSCAASGRIFYRNAMGWYRQAPGKDRELVAGISKRGGSTYYADSVKGRFTISRDNAKNTVYLQMTSLKPEDTAVYYCNKVSFLNSHKSRGNRYYYWGQGTQVTVSS,high polyreactivity
3,QVQLVESGGGLVQAGGSLSLICDASGRTFTRYVMGWYRHAPGKERELVAAISSSGGTYYADSVKGRFTISRDNAKNTVYLQMNSLKPEDTAVYYCAVGSKLSRSYGYYYWGQGTQVTVSS,high polyreactivity
4,QVQLVESGGGLVQAGGSLRLSCAASGSTFGFNAMGWYRQAPGKEREFVAAITRSGGSTYYADSVKGRFTISRDNAKNTVYLQMNSLKPEDTAVYYCAKRRYFYSQWVRAFDYWGQGTQVTVSS,high polyreactivity
5,QVQLVESGGGLVQAGGSLRLSCAASGIIFSSNAMGWYRQAPGKERELVAAISRSGGSTYYADSVKARFTISRDNAKKTVYLQMNSLKPEDTAVYDCAAVYRRGHEYDYWRQGTQVTVSS,high polyreactivity
6,QVQLVESGGGLVQAGGSLRLSCAASGRTFKYYAMGWYRQAPGKERELVAAISNGGRTNYADSVKGRFTISRDNAKNTVYLQMNSLKPEDTAVYYCAKRSFYFSDYDYWGQGTQVTVSS,high polyreactivity
7,QVQLVESGGGLVQAGGSLRLSCAASGNTFYHYAMGWYRQAPVKERELVAGIRYNGGSTYYADSVKGRFTISRDNAKNTVYLQMISLKPEDTAVYYCATRGRTAWYTMDYWGQGTQVTVSS,high polyreactivity
8,QVLLVESGGGLVQAGGSLRLSCAASGYNFFTKAMGWYRQAQGKERELVAAISKSGGRTYYADSVKGRFTISRDNAKNTVYLQMNSLTPEDTAVYYCAARSETSYYPSRYDYWGQGTQVTVSS,high polyreactivity
9,QVQLVESGGGLVQAGGSLRLSCAASGIISSVYAMGWYRPAPGKERELVAAISGSGGSTYYADSVKGRFTISRDNAKNTVYLQMNSLKAEDTAVYYCAKGYQYQGNSYGYWGQGTQVTVSS,low polyreactivity
10,QVQLVESGGGLVQAGCSLRLSCSASGLTFYANAMGWYRQAPGKERELVAAISKSGGNTYYAYSVKGRFTISRDNAKNTVYLQMNSLKPEDTAVYYCAVGYPRGYVDVDSWGQGTQVTVSS,high polyreactivity
11,QVQLVESGGGLVQAGGSLRITCAASGSTFYRNAMGWYRQAPGKERELVAALSRGGSTYYADSVKGRFTISRDNAKNTVYLQMNSLKPEDSAVYYCAARYYSYQYGRHTRYQSVYWGQGTQVTVSS,high polyreactivity
12,QVQLVESGGGLVQAGGSLRLSCAASGSIFLRYDMGWYRQAPGKERELVAAISRGGSTYYADSVKGRFTISRDNAKNTVYLQLNSLKPEDTAVYSCAARRFGREHGYWGQGTQVTVSS,high polyreactivity
13,QVQLVESGGGLVQAGGSLRLSCAASGSTLGSNAMGWYRQAPGKERELVAAITWSGGTTYYADSVKGRFTISRDNAKNTVYLQMNSMKPEDSAVYYCNAERGSGVWWKIWGSDPDDYWGQGTQVTVSS,low polyreactivity
14,QVHLVESGGGLVQAGGSLRLSCAASGLTFYPNAMGWYRQAPGKERELVAAITYSTGSTYADSVKGRFTITRDNAKNTVFLQMNSLKPEDSAVYDCAAYWSRVRYGMNYWGQGTQVTVSS,high polyreactivity
15,QVQLVESGGGLVQAGGSLRLSCAASGRTFKGYVMGWYRQAPGKERELVAAITYGGGSTYYADSVKGRFTISRDNAKNTVYLQMNSLKPEDTAVYYCAADSIYGTKYDYWGQGTQVTVSS,high polyreactivity
16,QVQLVESGGGLVQAGGSLRLSCAASGFTSLGNAMGWYRQAPGKERELVAAISRSGGRTYYADSVKGRFTISRDNAKNTVYLQMNSLKPEDTAVYYCNAVRLYGQGGDYWGQGTQVTVSS,high polyreactivity
17,QVQLEESGGGLVQAGGSLRLSCPASGITFYRYVMGWNRQAPGKERELDAAINWSTGTTNYADSVKGRFTISRDNAKNTVYLQMNSLKPEDTAVYYCNARYRLRFIYSLRYDYWGQGTQVTVSS,high polyreactivity
18,QVQLVESGGGLVQAGGSLRLSCAASGSIFTYNVMGWYRQAPGKERELVAAIRTRGDRTYYADSVKGRFTISRDNAKNTVYLQMNSLKPEDTAVYYCAAAGSYYSHEYWGQGTQVTVSS,high polyreactivity
19,QVQLVESGGGLVQAGGSLRLSCAASGSILKFNAMGWYRQAPGKERELVAAITRGTNTYYADSVKGRFTISRDNANNTFFLQMNSLKPEDTAVYYCAARLPYNAIGYYYWGQGTQVTVSS,low polyreactivity
20,QVQLVESGGGLDQAGGSLRLSCAASGFTFARYTMGWYRQAPGKEREFVAAISWSGGRTYYADSVKGRFTISRDNAKNTVYLQMNSLKPEDTAVYYCAARRKTTKYDYWGQGTQVTVSS,high polyreactivity
